Our source for the cells in which SlTRM5 stayed on the microtubules on co-expression with SlOFP20 in N. benthamiana leaf epidermal cells (% of the cells) values is PMC6226536.

The test deals with SlOFP20 (full length, expressed in N. benthamiana leaf cells) (tomato).

On to “SlTRM5 (full length, expressed in N. benthamiana leaf cells) (natural protein)”, for which the cells in which SlTRM5 stayed on the microtubules on co-expression with SlOFP20 in N. benthamiana leaf epidermal cells (% of the cells) was 71.
